Measured values taken from IntAct's records for PubMed 10202051.

B1: Actin nucleation-promoting factor WAS (Homo sapiens), P42768 (parent)
chain: MSGGPMGGRPGGRGAPAVQQNIPSTLLQDHENQRLFEMLGRKCLTLATAVVQLYLALPPGAEHWTKEHCGAVCFVKDNPQKSYFIRLYGLQAGRLLWEQELYSQLVYSTPTPFFHTFAGDDCQAGLNFADEDEAQAFRALVQEKIQKRNQRQSGDRRQLPPPPTPANEERRGGLPPLPLHPGGDQGGPPVGPLSLGLATVDIQNPDITSSRYRGLPAPGPSPADKKRSGKKKISKADIGAPSGFKHVSHVGWDPQNGFDVNNLDPDLRSLFSRAGISEAQLTDAETSKLIYDFIEDQGGLEAVRQEMRRQEPLPPPPPPSRGGNQLPRPPIVGGNKGRSGPLPPVPLGIAPPPPTPRGPPPPGRGGPPPPPPPATGRSGPLPPPPPGAGGPPMPPPPPPPPPPPSSGNGPAPPPLPPALVPAGGLAPGGGRGALLDQIRQGIQLNKTPGAPESSALQPPPQSSEGLVGALMHVMQKRSRAIHSSDEGEDQAGDEDEDDEWDD

Variants of: B1
Conditions: with wipf1_human WIPF1, O43516
Chain of wipf1_human WIPF1, O43516 (O43516 whole entry): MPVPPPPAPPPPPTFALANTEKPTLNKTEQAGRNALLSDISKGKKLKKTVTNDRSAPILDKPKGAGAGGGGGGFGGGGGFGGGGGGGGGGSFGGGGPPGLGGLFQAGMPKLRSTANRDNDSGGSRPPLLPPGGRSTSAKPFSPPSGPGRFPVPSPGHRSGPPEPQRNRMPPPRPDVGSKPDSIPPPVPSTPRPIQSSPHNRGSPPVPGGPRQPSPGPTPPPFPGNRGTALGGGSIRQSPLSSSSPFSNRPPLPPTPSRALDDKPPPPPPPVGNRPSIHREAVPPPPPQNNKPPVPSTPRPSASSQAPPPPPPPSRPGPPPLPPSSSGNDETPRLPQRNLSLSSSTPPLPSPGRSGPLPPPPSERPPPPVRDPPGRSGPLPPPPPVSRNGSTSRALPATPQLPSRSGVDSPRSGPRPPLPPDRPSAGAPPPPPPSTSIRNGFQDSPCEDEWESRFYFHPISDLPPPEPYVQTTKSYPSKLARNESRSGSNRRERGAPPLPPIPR

Variant | effect of a mutation on the interaction
Y107C | decreasing interaction
R86H | decreasing interaction
A134T | decreasing interaction
